# Laboratory results from paper PMC12416549 (2024).
# T1: TNFR1 (Homo sapiens, UniProt P19438)
# T1 chain: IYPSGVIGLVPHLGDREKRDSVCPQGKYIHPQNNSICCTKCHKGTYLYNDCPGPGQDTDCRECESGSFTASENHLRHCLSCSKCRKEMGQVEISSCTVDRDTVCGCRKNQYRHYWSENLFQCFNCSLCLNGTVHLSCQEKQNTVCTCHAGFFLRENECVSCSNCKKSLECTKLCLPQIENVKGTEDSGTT
# Target: T1, TNFR1
# Test: yeast display SC50
row,apparent Kd (screen),Binder
1,0.718 nM,E78Q (designed binder) SMEEEVEKAAKEYEKKKKEAIEKHLEKLKAKDKEAAERFLKELEEAAKEYAKDEAKTMSEEEAKRRAKKYKEKVLLSQLSEEEQKEIKEAEEKLVRTILKYVEEAAK
2,0.718 nM,A9Y (designed binder) SMEEEVEKYAKEYEKKKKEAIEKHLEKLKAKDKEAAERFLKELEEAAKEYAKDEAKTMSEEEAKRRAKKYKEKVLLSELSEEEQKEIKEAEEKLVRTILKYVEEAAK
3,2.05 nM,E83F (designed binder) SMEEEVEKAAKEYEKKKKEAIEKHLEKLKAKDKEAAERFLKELEEAAKEYAKDEAKTMSEEEAKRRAKKYKEKVLLSELSEEFQKEIKEAEEKLVRTILKYVEEAAK
4,0.653 nM,E34P (designed binder) SMEEEVEKAAKEYEKKKKEAIEKHLEKLKAKDKPAAERFLKELEEAAKEYAKDEAKTMSEEEAKRRAKKYKEKVLLSELSEEEQKEIKEAEEKLVRTILKYVEEAAK
5,3.99 nM,K68Y (designed binder) SMEEEVEKAAKEYEKKKKEAIEKHLEKLKAKDKEAAERFLKELEEAAKEYAKDEAKTMSEEEAKRRAYKYKEKVLLSELSEEEQKEIKEAEEKLVRTILKYVEEAAK
6,0.446 nM,A10S (designed binder) SMEEEVEKASKEYEKKKKEAIEKHLEKLKAKDKEAAERFLKELEEAAKEYAKDEAKTMSEEEAKRRAKKYKEKVLLSELSEEEQKEIKEAEEKLVRTILKYVEEAAK
7,0.446 nM,K64Q (designed binder) SMEEEVEKAAKEYEKKKKEAIEKHLEKLKAKDKEAAERFLKELEEAAKEYAKDEAKTMSEEEAQRRAKKYKEKVLLSELSEEEQKEIKEAEEKLVRTILKYVEEAAK
8,0.49 nM,K48I (designed binder) SMEEEVEKAAKEYEKKKKEAIEKHLEKLKAKDKEAAERFLKELEEAAIEYAKDEAKTMSEEEAKRRAKKYKEKVLLSELSEEEQKEIKEAEEKLVRTILKYVEEAAK
9,3 nM,Q84V (designed binder) SMEEEVEKAAKEYEKKKKEAIEKHLEKLKAKDKEAAERFLKELEEAAKEYAKDEAKTMSEEEAKRRAKKYKEKVLLSELSEEEVKEIKEAEEKLVRTILKYVEEAAK
10,0.718 nM,R96I (designed binder) SMEEEVEKAAKEYEKKKKEAIEKHLEKLKAKDKEAAERFLKELEEAAKEYAKDEAKTMSEEEAKRRAKKYKEKVLLSELSEEEQKEIKEAEEKLVITILKYVEEAAK
11,0.869 nM,K64R (designed binder) SMEEEVEKAAKEYEKKKKEAIEKHLEKLKAKDKEAAERFLKELEEAAKEYAKDEAKTMSEEEARRRAKKYKEKVLLSELSEEEQKEIKEAEEKLVRTILKYVEEAAK
12,1.05 nM,L25S (designed binder) SMEEEVEKAAKEYEKKKKEAIEKHSEKLKAKDKEAAERFLKELEEAAKEYAKDEAKTMSEEEAKRRAKKYKEKVLLSELSEEEQKEIKEAEEKLVRTILKYVEEAAK
13,10.4 nM,E49V (designed binder) SMEEEVEKAAKEYEKKKKEAIEKHLEKLKAKDKEAAERFLKELEEAAKVYAKDEAKTMSEEEAKRRAKKYKEKVLLSELSEEEQKEIKEAEEKLVRTILKYVEEAAK
14,1.54 nM,S59V (designed binder) SMEEEVEKAAKEYEKKKKEAIEKHLEKLKAKDKEAAERFLKELEEAAKEYAKDEAKTMVEEEAKRRAKKYKEKVLLSELSEEEQKEIKEAEEKLVRTILKYVEEAAK
15,0.593 nM,K64H (designed binder) SMEEEVEKAAKEYEKKKKEAIEKHLEKLKAKDKEAAERFLKELEEAAKEYAKDEAKTMSEEEAHRRAKKYKEKVLLSELSEEEQKEIKEAEEKLVRTILKYVEEAAK
16,3 nM,K71M (designed binder) SMEEEVEKAAKEYEKKKKEAIEKHLEKLKAKDKEAAERFLKELEEAAKEYAKDEAKTMSEEEAKRRAKKYMEKVLLSELSEEEQKEIKEAEEKLVRTILKYVEEAAK
17,0.446 nM,K18S (designed binder) SMEEEVEKAAKEYEKKKSEAIEKHLEKLKAKDKEAAERFLKELEEAAKEYAKDEAKTMSEEEAKRRAKKYKEKVLLSELSEEEQKEIKEAEEKLVRTILKYVEEAAK
18,2.25 nM,A20W (designed binder) SMEEEVEKAAKEYEKKKKEWIEKHLEKLKAKDKEAAERFLKELEEAAKEYAKDEAKTMSEEEAKRRAKKYKEKVLLSELSEEEQKEIKEAEEKLVRTILKYVEEAAK

row,apparent Kd (screen),Binder
1,2.25 nM,K93Y (designed binder) SMEEEVEKAAKEYEKKKKEAIEKHLEKLKAKDKEAAERFLKELEEAAKEYAKDEAKTMSEEEAKRRAKKYKEKVLLSELSEEEQKEIKEAEEYLVRTILKYVEEAAK
2,0.446 nM,E34R (designed binder) SMEEEVEKAAKEYEKKKKEAIEKHLEKLKAKDKRAAERFLKELEEAAKEYAKDEAKTMSEEEAKRRAKKYKEKVLLSELSEEEQKEIKEAEEKLVRTILKYVEEAAK
3,24.4 nM,M58Y (designed binder) SMEEEVEKAAKEYEKKKKEAIEKHLEKLKAKDKEAAERFLKELEEAAKEYAKDEAKTYSEEEAKRRAKKYKEKVLLSELSEEEQKEIKEAEEKLVRTILKYVEEAAK
4,1.69 nM,A46N (designed binder) SMEEEVEKAAKEYEKKKKEAIEKHLEKLKAKDKEAAERFLKELEENAKEYAKDEAKTMSEEEAKRRAKKYKEKVLLSELSEEEQKEIKEAEEKLVRTILKYVEEAAK
5,1.69 nM,I21N (designed binder) SMEEEVEKAAKEYEKKKKEANEKHLEKLKAKDKEAAERFLKELEEAAKEYAKDEAKTMSEEEAKRRAKKYKEKVLLSELSEEEQKEIKEAEEKLVRTILKYVEEAAK
6,3 nM,F39M (designed binder) SMEEEVEKAAKEYEKKKKEAIEKHLEKLKAKDKEAAERMLKELEEAAKEYAKDEAKTMSEEEAKRRAKKYKEKVLLSELSEEEQKEIKEAEEKLVRTILKYVEEAAK
7,7.07 nM,R65F (designed binder) SMEEEVEKAAKEYEKKKKEAIEKHLEKLKAKDKEAAERFLKELEEAAKEYAKDEAKTMSEEEAKFRAKKYKEKVLLSELSEEEQKEIKEAEEKLVRTILKYVEEAAK
8,1.16 nM,K31Q (designed binder) SMEEEVEKAAKEYEKKKKEAIEKHLEKLKAQDKEAAERFLKELEEAAKEYAKDEAKTMSEEEAKRRAKKYKEKVLLSELSEEEQKEIKEAEEKLVRTILKYVEEAAK
9,4.39 nM,K71W (designed binder) SMEEEVEKAAKEYEKKKKEAIEKHLEKLKAKDKEAAERFLKELEEAAKEYAKDEAKTMSEEEAKRRAKKYWEKVLLSELSEEEQKEIKEAEEKLVRTILKYVEEAAK
10,0.653 nM,K48Y (designed binder) SMEEEVEKAAKEYEKKKKEAIEKHLEKLKAKDKEAAERFLKELEEAAYEYAKDEAKTMSEEEAKRRAKKYKEKVLLSELSEEEQKEIKEAEEKLVRTILKYVEEAAK
11,2.05 nM,E45A (designed binder) SMEEEVEKAAKEYEKKKKEAIEKHLEKLKAKDKEAAERFLKELEAAAKEYAKDEAKTMSEEEAKRRAKKYKEKVLLSELSEEEQKEIKEAEEKLVRTILKYVEEAAK
12,1.16 nM,E61V (designed binder) SMEEEVEKAAKEYEKKKKEAIEKHLEKLKAKDKEAAERFLKELEEAAKEYAKDEAKTMSEVEAKRRAKKYKEKVLLSELSEEEQKEIKEAEEKLVRTILKYVEEAAK
13,0.446 nM,S1K (designed binder) KMEEEVEKAAKEYEKKKKEAIEKHLEKLKAKDKEAAERFLKELEEAAKEYAKDEAKTMSEEEAKRRAKKYKEKVLLSELSEEEQKEIKEAEEKLVRTILKYVEEAAK
14,0.653 nM,K33C (designed binder) SMEEEVEKAAKEYEKKKKEAIEKHLEKLKAKDCEAAERFLKELEEAAKEYAKDEAKTMSEEEAKRRAKKYKEKVLLSELSEEEQKEIKEAEEKLVRTILKYVEEAAK
15,1.54 nM,K107A (designed binder) SMEEEVEKAAKEYEKKKKEAIEKHLEKLKAKDKEAAERFLKELEEAAKEYAKDEAKTMSEEEAKRRAKKYKEKVLLSELSEEEQKEIKEAEEKLVRTILKYVEEAAA
16,2.25 nM,A35D (designed binder) SMEEEVEKAAKEYEKKKKEAIEKHLEKLKAKDKEDAERFLKELEEAAKEYAKDEAKTMSEEEAKRRAKKYKEKVLLSELSEEEQKEIKEAEEKLVRTILKYVEEAAK
17,1.69 nM,V95I (designed binder) SMEEEVEKAAKEYEKKKKEAIEKHLEKLKAKDKEAAERFLKELEEAAKEYAKDEAKTMSEEEAKRRAKKYKEKVLLSELSEEEQKEIKEAEEKLIRTILKYVEEAAK
